{
  "source": "paper PMC4297295",
  "about": "“Structural Conservation Despite Huge Sequence Diversity Allows EPCR Binding by the PfEMP1 Family Implicated in Severe Childhood Malaria” (Cell Host & Microbe, 2015)",
  "binders": {"B1": {"name": "CIDRα1.1 domain GA011_ERS009959 (domain or fragment)", "chain": "PDCVVYCEGGECKENENGDNCRSEIIKEIVRSETPTVIDVLYSGNGQDHITEKLDHFCSSTNKEDRKYYKTLKCYNKNNDYNKCEMISWLYQDPKESNLMLSIQCFYSWAQNLLIDTIRWEHQLKDCINNTNVTDCKSNCNKNCKCYKKWIEQKGSEWQQVKQVLKKKDKNSENYYDKLKDVFDTLYFEVMHELNKGKEKGKSEELTEDLKKKFGPSKKNTDAADSKDAIEFLLDHLNDNAITCKDNNSLAVENCTRTKSNPC", "notes": "also called CIDRa1.1 GA011_ERS009959; GA011 (1.1)"}, "B2": {"name": "CIDRα1.5b domain 1983-13 (patient isolate 1983) (domain or fragment)", "chain": "PDCGVECNGKTCTKKEETDENCGKPPNYTIPTDVTPTDINVLYSGDEQGYITKRLSEFCGPTKNYIGKKNELWKCYYDDKQKNNNNNNNICKLQPNAHIKNENIIINFDNFFEFWVRRFLNDTIDWKYDLNTCMNFTNTTKCNNNCNKNCKCFEQWVNIKKTEWKNVTEYFFKHDETSKKKYCEILKDIFENYYVEVIEKFYKGKHKWKERIEKLKNMDCSQVKIGTNASQDQIDIFLSNLKGDATQCTSKNPKSACNKPHAARIITRATTRNPC"}, "B3": {"name": "CIDRα1.5a domain 1965-2 (patient isolate 1965) (domain or fragment)", "chain": "PDCGVECKNGRCKKKTDADGNCGKTQIYDIPKDVTPTDINVLYSGDEYGDIAKRLSEFCRDSKKENGKNTEIWHCYYIGDKHNQCKMEKAVAENKHQTKITTFDFFFDLWIKNLLRDTINWKSQLKNCINNTNKTNCNKTCNENCKCFENWVNQKEKEWNNMKELFKNKNRTSQNYYNKLKSHFDNYFFLVINNVNKGEAKWKKFTDELRNKIDSSKAKNGTSDSQDSIKMLLEHLKEDGTTCTANNPDSICNTPGTDARSLEPASKIEPQNKDTRTNPC"}, "B4": {"name": "CIDRα1.1 domain of PfEMP1 RAJ116var08 (domain or fragment)", "chain": "PDCVVDCTGGNCKENKKHDNCRSKIIEEILRSEETTDIDVLYSGKGPGAITKKLHDFCSNPNNYKRANVQKWKCYNKNKDYNNCEMNISSYKDATDPNVMLSVQCFYSWAQNLLIDIIRWEHQLKDCINNTNVTDCDNECNKNCECFEKWIKQKQKEWQQVKEVLKKKDENSHNYYNKLRSVFDSFLYQVMFALNNEEKGKWDQFTEDLEKKFESSKKSAGTGNSQDAIEFLLDHLNDNAITCKDNNSKESC", "notes": "also called CIDRa1.1 RAJ116var08_RAJ116; RAJ116var08 (1.1)"}, "B5": {"name": "CIDRα1.5a domain GA013_ERS010323 (domain or fragment)", "chain": "PYCGVDCSNGTCKENGNDDNCGEQQNYNIPKGVDPTNINVLYSVDGHGDIAKRLSTFCNDKNNKNAKNNEIWQCYYIGHKNNQCKIEKSVSQKKHQTKIAPFDYFFDLWVTNLLRDNIDWKNELKNCINNKNTEKCNKECNDNCKCFQSWLNKKEDEWNKITGLLKNKNGILQNYYNKLKSHFDYYFFQVINNINKGEEKWKKLKEDLKKEIDFSKLKTNTGDSQDSIKLLLDHENKNAGTCLKNNPIDSCPKAEPQKSDEKVQPQDTPPNSC", "notes": "also called CIDRa1.5a GA013_ERS010323; GA013 (1.5a)"}, "B6": {"name": "CIDRα1.1 domain of PfEMP1 IT4var20 (domain or fragment)", "chain": "PDCVVQCKGGKCTEDKKNDKCRSKIIKKILQSEEPTEIHVLNSDDKQGDITKKLEVFCSSTTNYEGRNVQKWKCYNKNSDYNNCEMNISSYKDSTDANVMLSVECFHSWAKNLLIDTIKWEHQLKNCINNTNVTYCESKCIKNCECYEKWIKRKEHEWEKVKNVFGNNNRMSYIYYNNLSRVFDSFLFQVMFALDQDEKGKWDQFTEDLKKKFEPSKTNTPTGKSQDAIEFLLDHLKDNALTCRDNNSNESCDVSKKVKTNPC", "notes": "also called CIDRa1.1 IT4var20_IT4; IT4var20 (1.1)"}, "B7": {"name": "CIDRα1.4 domain of PfEMP1 DD2var32 (domain or fragment)", "chain": "PDCGVECNKGTCKKKPNDSNCRNNEAYIPPRDVTPTKINVLYSGDGHGDITKKLKGFCSNPTDYDGKNYENWQCYYKSSEDNKCQMTSLSQTLQKHHYVMSFYAFFDFWVRKFLIDTIKWENELKNCINNTTTDCSDGCNKHCVCFDKWVKQKEKEWNSIKKLFTKKNNVPQPYYTNINNLFDSFYFQVMYELNHDEAKWKELTQELRNKINSSKKNTDAADSKDAIELLLEYLKEKSTICKDNNTNEAC", "notes": "also called CIDRa1.4 DD2var32_DD2; DD2var32 (1.4)"}},
  "data": [
    {"biological_target": "T1, endothelial protein C receptor (EPCR), extracellular domain, biotinylated on the N-terminal BAP tag (human, UniProt Q9UNN8 18-210, biotin attached to the N-terminal BAP tag (BirA))", "T1 construct": "also called biotinylated recombinant EPCR; ECPR", "T1 sequence": "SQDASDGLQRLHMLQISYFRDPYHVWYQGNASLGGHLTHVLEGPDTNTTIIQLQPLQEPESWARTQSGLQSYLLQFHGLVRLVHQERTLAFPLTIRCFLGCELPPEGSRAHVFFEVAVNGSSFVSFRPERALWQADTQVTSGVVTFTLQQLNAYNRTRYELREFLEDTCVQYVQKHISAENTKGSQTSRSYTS", "experiment": "SPR", "settings": "both partners purified", "units": {"Kd": "nM", "koff": "s⁻¹", "kon": "M⁻¹ s⁻¹"}, "values": [
      {"binder": "B1", "Kd": 182, "koff": "7.24e-05", "kon": 389},
      {"binder": "B2", "Kd": 169000, "koff": 0.00047, "kon": 2.8},
      {"binder": "B3", "Kd": 54, "koff": 0.00103, "kon": 18900},
      {"binder": "B4", "Kd": 1.4, "koff": "3.85e-05", "kon": 27900},
      {"binder": "B5", "Kd": 57, "koff": 0.000832, "kon": 14700},
      {"binder": "B6", "Kd": 0.37, "koff": 0.000123, "kon": 332000},
      {"binder": "B7", "Kd": 0.3, "koff": 0.000343, "kon": "1.06e+06"}
    ]}
  ]
}
